Measurements: publication PMC10241913

Assays:
ubiquitin (wild type) = ubiquitin (wild type) (UniProt P0CG48); experiment: NMR titration; 1H-15N-HSQC titrations of ubiquitin with UBXD1, UBXD1-eUBX R305A, PUB or the UBX extension; 50 mM sodium potassium phosphate pH 7.5, 25 °C
[1] = biological target: UBXD1 UBX extension (269–330), for fluorescence anisotropy (human) (UniProt Q9BZV1); experiment: fluorescence polarisation; fluorescence anisotropy; Atto594-labeled UBXD1 proteins, p97 constructs titrated; 50 mM NaKPi pH 7.5, 25 °C; all fitted with stoichiometry n = 1

Kd (ubiquitin (wild type)) | Kd [1] | Substance
155 µM | – | UBXD1-eUBX R305A (from UniProt Q9BZV1 1-441) (domain or fragment)
– | 191 µM | p97-wt (1–806) (from UniProt P55072 1-806) (enzyme)
